Legend:
[1] = target: T1, ILT-2_6×His recombinant protein (human, UniProt Q8NHL6 24-458); assay: SPR, mAb captured on Protein-A, soluble ILT2 analyte
T1 construct: also called recombinant 6×HIS tagged ILT2; recombinant human ILT2 proteins
Procedure: Measurements were performed on a Biacore T200 apparatus (Biacore GE Healthcare) at 25° C. In all Biacore experiments HBS-EP+ (Biacore GE Healthcare) and NaOH 10 mM served as running buffer and regeneration buffer respectively. Sensorgrams were analyzed with Biacore T100 Evaluation software. Protein-A was purchased from (GE Healthcare). Human ILT2 recombinant proteins were cloned, produced and purified at Innate Pharma. Protein-A proteins were immobilized covalently to carboxyl groups in the dextran layer on a Sensor Chip CM5. The chip surface was activated with EDC/NHS (N-ethyl-N′-(3-dimethylaminopropyl) carbodiimidehydrochloride and N-hydroxysuccinimide (Biacore GE Healthcare)). Protein-A was diluted to 10 μg/ml in coupling buffer (10 mM acetate, pH 5.6) and injected until the appropriate immobilization level was reached (i.e. 2000 RU). Deactivation of the remaining activated groups was performed using 100 mM ethanolamine pH 8 (Biacore GE Healthcare). […] For blank subtraction, cycles were performed again replacing ILT2 proteins with running buffer. The monovalent affinity analysis was conducted following a regular Capture-Kinetic protocol as recommended by the manufacturer (Biacore GE Healthcare kinetic wizard). Seven serial dilutions of human ILT2 proteins, ranging from 6.25 to 400 nM were sequentially injected over the captured antibodies and allowed to dissociate for 10 min before regeneration. The entire sensorgram sets were fitted using the 1:1 kinetic binding model.

[2] = target: T2, ILT2 mutant 2 (human, UniProt Q8NHL6 24-650); assay: flow cytometry, HEK293T cells with ILT2 mutant
T2 construct: Transfected in HEK-293T cells; also called M2

[3] = target: T3, ILT2 mutant 4-5 (human, UniProt Q8NHL6 24-650); assay: flow cytometry, HEK293T cells with ILT2 mutant
T3 construct: Transfected in HEK-293T cells

[4] = target: T4, ILT2 mutant 4-1 (human, UniProt Q8NHL6 24-650); assay: flow cytometry, HEK293T cells with ILT2 mutant
T4 construct: Transfected in HEK-293T cells

[5] = target: T5, ILT2 mutant 5 (human, UniProt Q8NHL6 24-650); assay: flow cytometry, HEK293T cells with ILT2 mutant
T5 construct: Transfected in HEK-293T cells

[6] = target: T6, ILT2 mutant 4-3 (human, UniProt Q8NHL6 24-650); assay: flow cytometry, HEK293T cells with ILT2 mutant
T6 construct: Transfected in HEK-293T cells

[7] = target: T7, ILT2 mutant 4-2 (human, UniProt Q8NHL6 24-650); assay: flow cytometry, HEK293T cells with ILT2 mutant
T7 construct: Transfected in HEK-293T cells

[8] = target: T8, ILT2 mutant 6 (human, UniProt Q8NHL6 24-650); assay: flow cytometry, HEK293T cells with ILT2 mutant
T8 construct: Transfected in HEK-293T cells

[9] = target: T9, ILT2 mutant 7 (human, UniProt Q8NHL6 24-650); assay: flow cytometry, HEK293T cells with ILT2 mutant
T9 construct: Transfected in HEK-293T cells

[10] = target: T10, ILT2 mutant 4-4 (human, UniProt Q8NHL6 24-650); assay: flow cytometry, HEK293T cells with ILT2 mutant
T10 construct: Transfected in HEK-293T cells

[11] = target: T11, ILT2 mutant 3 (human, UniProt Q8NHL6 24-650); assay: flow cytometry, HEK293T cells with ILT2 mutant
T11 construct: Transfected in HEK-293T cells

[12] = target: T12, ILT2 mutant 3b (human, UniProt Q8NHL6 24-650); assay: flow cytometry, HEK293T cells with ILT2 mutant
T12 construct: Transfected in HEK-293T cells

[13] = target: T13, ILT2 mutant 8 (human, UniProt Q8NHL6 24-650); assay: flow cytometry, HEK293T cells with ILT2 mutant
T13 construct: Transfected in HEK-293T cells

[14] = target: T14, ILT2 mutant 4-1b (human, UniProt Q8NHL6 24-650); assay: flow cytometry, HEK293T cells with ILT2 mutant
T14 construct: Transfected in HEK-293T cells

[15] = target: T15, ILT2 mutant 4 (human, UniProt Q8NHL6 24-650); assay: flow cytometry, HEK293T cells with ILT2 mutant
T15 construct: Transfected in HEK-293T cells

[16] = target: T16, Human ILT-2 (complete form) expressed at the cell surface (human, UniProt Q8NHL6 24-650); assay: flow cytometry titration on cells transfected with wild-type ILT2 (WT)
T16 construct: also called LILRB1; CHO-ILT2
T16 sequence (Q8NHL6 24-650): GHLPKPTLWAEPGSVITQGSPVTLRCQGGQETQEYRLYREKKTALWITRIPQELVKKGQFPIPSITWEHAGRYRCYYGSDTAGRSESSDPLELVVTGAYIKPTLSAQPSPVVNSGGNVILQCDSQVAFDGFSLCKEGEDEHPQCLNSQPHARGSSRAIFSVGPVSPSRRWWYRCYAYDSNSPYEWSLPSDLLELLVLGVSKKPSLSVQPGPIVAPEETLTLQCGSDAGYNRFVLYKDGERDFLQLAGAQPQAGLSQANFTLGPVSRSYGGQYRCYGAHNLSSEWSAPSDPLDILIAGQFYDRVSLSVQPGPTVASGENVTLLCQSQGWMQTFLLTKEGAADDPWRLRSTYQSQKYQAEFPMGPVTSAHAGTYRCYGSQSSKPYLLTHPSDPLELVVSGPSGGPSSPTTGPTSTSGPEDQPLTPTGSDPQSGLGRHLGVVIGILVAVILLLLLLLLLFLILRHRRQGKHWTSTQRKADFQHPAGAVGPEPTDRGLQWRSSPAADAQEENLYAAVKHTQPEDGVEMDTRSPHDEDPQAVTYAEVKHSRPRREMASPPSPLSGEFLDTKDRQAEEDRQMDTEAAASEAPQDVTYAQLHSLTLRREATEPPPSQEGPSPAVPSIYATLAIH

T1 sequence (Q8NHL6 other isoform, or with tags, fused parts or gaps limits assumed): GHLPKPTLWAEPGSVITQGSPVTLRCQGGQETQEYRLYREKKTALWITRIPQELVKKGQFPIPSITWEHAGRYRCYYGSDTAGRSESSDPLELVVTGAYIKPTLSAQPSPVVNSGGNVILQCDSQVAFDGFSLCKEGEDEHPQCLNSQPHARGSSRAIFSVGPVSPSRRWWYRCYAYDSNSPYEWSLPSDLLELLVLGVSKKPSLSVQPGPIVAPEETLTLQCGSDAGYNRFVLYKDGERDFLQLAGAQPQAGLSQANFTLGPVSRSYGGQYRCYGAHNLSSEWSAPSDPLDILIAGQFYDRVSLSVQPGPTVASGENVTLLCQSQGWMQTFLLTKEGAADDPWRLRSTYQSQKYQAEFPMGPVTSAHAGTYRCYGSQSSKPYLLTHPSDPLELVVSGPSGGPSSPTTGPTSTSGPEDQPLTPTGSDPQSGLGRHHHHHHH
T2 sequence (Q8NHL6 other isoform, or with tags, fused parts or gaps mutant): as the sequence (Q8NHL6 24-650) above, with E34A, R36A, Y76I, A82S, R84L counted along it
T5 sequence (Q8NHL6 other isoform, or with tags, fused parts or gaps mutant): as the sequence (Q8NHL6 24-650) above, with A127S, D129A, Q148H, R152A, N180R counted along it
T7 sequence (Q8NHL6 other isoform, or with tags, fused parts or gaps mutant): as the sequence (Q8NHL6 24-650) above, with W328G, Q330H, R347A, T349A, Y350S, Y355A counted along it
T14 sequence (Q8NHL6 other isoform, or with tags, fused parts or gaps mutant): as the sequence (Q8NHL6 24-650) above, with Y300R, D301A, R302A, S304F, H387A, D390A counted along it
T4 sequence (Q8NHL6 other isoform, or with tags, fused parts or gaps mutant): as the sequence (Q8NHL6 24-650) above, with F299I, Y300R, D301A, W328G, Q378A, K381N counted along it
T13 sequence (Q8NHL6 other isoform, or with tags, fused parts or gaps mutant): as the sequence (Q8NHL6 24-650) above, with V111S, N113A, L195S, L197P counted along it
T10 sequence (Q8NHL6 other isoform, or with tags, fused parts or gaps mutant): as the sequence (Q8NHL6 24-650) above, with Q308A, P309G, N318A, T320A, E358S, G362S counted along it
T3 sequence (Q8NHL6 other isoform, or with tags, fused parts or gaps mutant): as the sequence (Q8NHL6 24-650) above, with D341A, D342S, W344L, R345A, R347A counted along it
T12 sequence (Q8NHL6 other isoform, or with tags, fused parts or gaps mutant): as the sequence (Q8NHL6 24-650) above, with Q18A, W67A, Y99A, I100S, V126S, S181A, E184G counted along it
T15 sequence (Q8NHL6 other isoform, or with tags, fused parts or gaps mutant): as the sequence (Q8NHL6 24-650) above, with S132A, L145S, N146A, Q148H, P149S counted along it
T8 sequence (Q8NHL6 other isoform, or with tags, fused parts or gaps mutant): as the sequence (Q8NHL6 24-650) above, with Q107L, P108A, I119A, R156A counted along it
T9 sequence (Q8NHL6 other isoform, or with tags, fused parts or gaps mutant): as the sequence (Q8NHL6 24-650) above, with P166A, R169A, W171S, L191A, E193G, L195S, L197P counted along it
T11 sequence (Q8NHL6 other isoform, or with tags, fused parts or gaps mutant): as the sequence (Q8NHL6 24-650) above, with Y99A, I100S, V126S, A127S, D129A, N180R, S181A, E184G counted along it
T6 sequence (Q8NHL6 other isoform, or with tags, fused parts or gaps mutant): as the sequence (Q8NHL6 24-650) above, with Q324A, Q326S, S352A, Q353H, K354A counted along it

B1: 27H5 (antibody, human IgG1, V domains shown)
VH: QVQLKESGPGLVAPSQSLSITCTVSGFSLTSYGVSWVRQPPGKGLEWLGVIWGDGNTNYHSALISRLSISKDNSKSQVFLKLNSLQTDDTATYYCARTNWDGWFAYWGQGTLVTVSA
VL: DIVMTQSHKFMSTSVGDRVSITCKASQDVGTAVAWYQQKPGQSPKLLIYWASTRHTGVPDRFTGSGSGTDFTLTISNVQSEDLADYFCQQYRSYPLGTFGGGTKLEIK
kon [1]: 660000 M⁻¹ s⁻¹

B2: 2H2A (antibody, V domains shown)
VH: EVKLEESGPELVKPGASVKLSCKASGYTFTNYYMQWVKQRPGQGLEWIGWIFPGSGESSYNEKFKGKATLSADTSSTTAYMQLSSLTSEDSAVYFCARTWNYDARWGYWGQGTTLTVSS
VL: DILMTQSPASLAVSLGQRATISCIPSESIDSYGISFMHWYQQKPGQPPKLLIYRASNLESGIPARFSGSGSRTDFTLTINPVEADDVATYYCQQSNEDPFTFGSGTKLELK
binding result [2]: no binding

B3: 12D12 (antibody, human IgG1, V domains shown)
VH: QVQLQQPGAELVKPGASVRMSCKASGYTFTSYWVHWVKQRPGQGLEWIGVIDPSDSYTSYNQNFKGKATLTVDTSSKTAYIHLSSLTSEDSAVYFCARGERYDGDYFAMDYWGQGTSVTVSS
VL: DIVMTQSPASLSVSVGETVTITCRASENIYSNLAWYQQKQGKSPQLLVYAATNLADGVPSRFSGSRSGTQYSLKINSLQSEDFGTYYCQHFWNTPRTFGGGTKLEIK
notes: also called 12012
binding result [3]: binds | binding result [4]: binds | binding result [5]: binds | binding result [6]: binds | binding result [7]: binds | binding result [8]: binds | binding result [9]: binds | binding result [10]: binds | binding result [11]: binds | binding result [12]: binds | binding result [13]: binds | binding result [14]: binds | binding result [15]: binds

B4: 18E1 (antibody, human IgG1, V domains shown)
VH: QVQLQQSGAELVKPGASVRLSCKASGYTFTAHTIHWVKQRSGQGLEWIGWLYPGSGSIKYNEKFKDKATLTADKSSSTVYMELSRLTSEDSAVYFCARHTNWDFDYWGQGTTLTVSS
VL: NIVLTQSPASLAVSLGQRATISCKASQSVDYGGASYMNWYQQKPGQPPKLLIYAASNLESGIPARFSGSGSGTDLTLNIHPVEEEDAAMYYCQQSNEEPWTFGGGTKLEIK
kon [1]: 750000 M⁻¹ s⁻¹

B5: 3H5 (antibody, human IgG1, V domains shown)
VH: QVQLKESGPGLVAPSQSLSITCTVSGFSLTSYGVSWVRQPPGKGLEWLGVIWGDGSTNYHSALISRLSISKDNSKSQVFLKLNSLQTDDTATYYCAKPRWDDYAMDYWGQGTSVTVSS
VL: DIQMTQTTSSLSASLGDRVTISCRASQDISNYLNWYQQKPDGTVKLLIYYTSRLHSGVPSRFSGSGSGTDYSLTISNLEQEDIATYFCQQGNTLWTFGGGTKLEIK
kon [1]: 280000 M⁻¹ s⁻¹ | EC50 (read off the curve) [16]: ~1 µg/mL

— patent US20240294634A1 (INNATE PHARMA, published 2024)
